Patent US20180222961A1 (IMMATICS BIOTECHNOLOGIES, published 2018)

What follows are binders tested against T1, HLA-B*07:02 (human) (assay: UV-exchange b2m ELISA; exchange-yield grade).
T1 construct: also called peptide-receptive MHC molecules
From the text: Candidate peptides for T cell based therapies according to the present invention were further tested for their MHC binding capacity (affinity). The individual peptide-MHC complexes were produced by UV-ligand exchange, where a UV-sensitive peptide is cleaved upon UV-irradiation, and exchanged with the peptide of interest as analyzed. Only peptide candidates that can effectively bind and stabilize the peptide-receptive MHC molecules prevent dissociation of the MHC complexes. To determine the yield of the exchange reaction, an ELISA was performed based on the detection of the light chain (β2m) of stabilized MHC complexes. The assay was performed as generally described in Rodenko et al. (Rodenko et al., 2006).
96 well MAXISorp plates (NUNC) were coated over night with 2 ug/ml streptavidin in PBS at room temperature, washed 4× and blocked for 1 h at 37° C. in 2% BSA containing blocking buffer. Refolded HLA-A*02:01/MLA-001 monomers served as standards, covering the range of 15-500 ng/ml. Peptide-MHC monomers of the UV-exchange reaction were diluted 100-fold in blocking buffer. Samples were incubated for 1 h at 37° C., washed four times, incubated with 2 ug/ml HRP conjugated anti-β2m for 1 h at 37° C., washed again and detected with TMB solution that is stopped with […]. Absorption was measured at 450 nm. Candidate peptides that show a high exchange yield (preferably higher than 50%, most preferred higher than 75%) are generally preferred for a generation and production of antibodies or fragments thereof, and/or T cell receptors or fragments thereof, as they show sufficient avidity to the MHC molecules and prevent dissociation of the MHC complexes.

| Binder | peptide exchange yield [%] |
| --- | --- |
| SPMATTSTL | 50 to 75 |
| SPQSMSNTL | 50 to 75 |
| SPRTEASSAVL | 50 to 75 |
| SPMTSLLTSGL | 50 to 75 |
| TPGLRETSI | 20 to 50 |
| SPAMTSTSF | 20 to 50 |
| SPSPVSSTL | 50 to 75 |
| SPSPVTSTL | 50 to 75 |
| SPSSPMSTF | 20 to 50 |
| IPRPEVQAL | 50 to 75 |
| APRWFPQPTVV | 50 to 75 |
| KPYGGSGPL | 50 to 75 |
| GPREALSRL | 50 to 75 |
| VPDSGATATAY | 20 to 50 |
| YPLRGSSIF | 50 to 75 |
| YPLRGSSIFGL | 50 to 75 |
| YPLRGSSI | 20 to 50 |
| TVREASGLL | 50 to 75 |
| YPTEHVQF | 20 to 50 |
| HPGSSALHY | 20 to 50 |
| IPMAAVKQAL | 50 to 75 |
| SPRRSPRISF | 20 to 50 |
| RVEEVRALL | 50 to 75 |

| Binder | peptide exchange yield [%] |
| --- | --- |
| LPMWKVTAF | 50 to 75 |
| LPRPGAVL | 50 to 75 |
| TPWAESSTKF | 20 to 50 |
| APVIFSHSA | 20 to 50 |
| LPYGPGSEAAAF | 50 to 75 |
| YPEGAAYEF | 20 to 50 |
| FPQSQYPQY | 50 to 75 |
| RPLFYVVSL | 20 to 50 |
| LPYFREFSM | 50 to 75 |
| KVKSDRSVF | 10 to 20 |
| VPDQPHPEI | 50 to 75 |
| SPRENFPDTL | 50 to 75 |
| EPKTATVL | 20 to 50 |
| FPFQPGSV | 50 to 75 |
| FPNRLNLEA | 50 to 75 |
| SPAEPSVYATL | > 75 |
| FPMSPVTSV | 50 to 75 |
| SPMDTFLLI | 20 to 50 |
| SPDPSKHLL | 20 to 50 |
| RPMPNLRSV | 50 to 75 |
| VPYRVVGL | 20 to 50 |
| GPRNAQRVL | 50 to 75 |
| VPSEIDAAF | 20 to 50 |

| Binder | peptide exchange yield [%] |
| --- | --- |
| SPLPVTSLI | 50 to 75 |
| SPLPVTSLL | 50 to 75 |
| EPVTSSLPNF | 20 to 50 |
| FPAMTESGGMIL | 50 to 75 |
| FPFVTGSTEM | 20 to 50 |
| FPHPEMTTSM | 50 to 75 |
| FPHSEMTTL | 50 to 75 |
| FPHSEMTTV | 50 to 75 |
| FPHSEMTTVM | 50 to 75 |
| FPYSEVTTL | 50 to 75 |
| HPDPVGPGL | 20 to 50 |
| HPKTESATPAAY | 20 to 50 |
| HPVETSSAL | 50 to 75 |
| HVTKTQATF | 20 to 50 |
| LPAGTTGSLVF | 50 to 75 |
| LPEISTRTM | 20 to 50 |
| LPLDTSTTL | 50 to 75 |
| LPLGTSMTF | 50 to 75 |
| LPSVSGVKTTF | 20 to 50 |
| LPTQTTSSL | 50 to 75 |
| LPTSESLVSF | 20 to 50 |
